The target of experiment [1] is T1, purified recombinant A3G-His6 (human APOBEC3G with C-terminal Myc-His6 tag, expressed in 293T cells) (human), Q9HC16. In words: cell-based or functional assay.
The target of experiment [2] is T1, purified recombinant A3G-His6 (human …).

This is an account of results in patent US20150111836A1, “CELLULAR APOBEC3 PROTEINS AND MODULATORS THEREOF FOR REGULATING DNA REPAIR PROCESSES AND TREATING PROLIFERATIVE DISEASES” (priority 2012, published 2015).

T1 sequence (Q9HC16 whole entry): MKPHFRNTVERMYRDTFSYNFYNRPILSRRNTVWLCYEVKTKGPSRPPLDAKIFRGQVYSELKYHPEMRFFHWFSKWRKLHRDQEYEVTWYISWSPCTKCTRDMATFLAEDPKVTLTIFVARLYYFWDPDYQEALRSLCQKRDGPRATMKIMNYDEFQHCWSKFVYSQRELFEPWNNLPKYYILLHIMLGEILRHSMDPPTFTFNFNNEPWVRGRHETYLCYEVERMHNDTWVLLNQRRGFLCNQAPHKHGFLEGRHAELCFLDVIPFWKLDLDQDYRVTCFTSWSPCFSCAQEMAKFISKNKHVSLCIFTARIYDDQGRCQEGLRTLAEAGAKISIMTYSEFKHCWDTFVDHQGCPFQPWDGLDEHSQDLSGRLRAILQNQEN

Take QLIHLYYFDCFSESA (modifications not checked) [Vif105-119 peptide]: in experiment [1], the IC50 of inhibition of A3G deaminase activity is 100 nM and the inhibition of A3G deaminase activity is 1 µM. In experiment [2], the K'I is 92 nM and the Ki (commonly a measure of affinity in units of concentration, obtained from inhibition or displacement) came out at 68 nM.

On to VKHHMYISGKAKGWF (modifications not checked) [Vif25-39 peptide], for which, in experiment [1], the IC50 of inhibition of A3G deaminase activity was determined as 600 nM, the IC50 of inhibition of deaminase activity of purified A3G (experimental repeat) is 1000 nM and the inhibition of A3G deaminase activity worked out at 1 µM. Also, the K'I in experiment [2] stood at 250 nM.
